The subject of one experiment is HCV RNA replication. The experiment is described as follows: HCV RNA replication under bile acids / FXR ligands. It counts as cell-based, Hepatitis C virus.
In experiment [1] the target is T1, HCV ORFs (Gal4-DB fusions) (Hepatitis C virus genotype 1b, UniProt Q9WMX2).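 Note: yeast two-hybrid screens using HCV genotype 1b proteins fused to Gal4-DB as baits against prey cDNA libraries from human spleen and foetal brain, IMAP1 via transformation and IMAP2 via mating.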
T1 construct: expressed in transfected cells; host or cells: Saccharomyces cerevisiae MAV203 (IMAP1) / AH109 (IMAP2)
It is filed as binding, HCV genotype 1b, isolate con1. The note with it: human protein as prey.

For experiment [2], the target named is T2, GST-tagged viral proteins (Hepatitis C virus genotype 1b, UniProt Q9WMX2).
T2 construct: expressed in transfected cells; host or cells: HEK-293T
The experiment is described as follows: Validation by co-affinity purification (CoAP). It counts as binding, HCV genotype 1b, isolate con1. More on the design: key: +: IMAP validation; −: not validated; NA: non assayable due to default of protein expression or to cellular protein directly interacting with GST. The text has this: C. Validation of Y2H interactions by co-affinity purification assay. Nine co-AP positive assays are shown, representing: NS5A-SORBS2 (1), NS3-CALCOCO2 (2), NS5A-BIN1 (3), NS5A-MOBK1B (4), NS5A-EFEMP1 (5), NS3-PSMB9 and NS5A-PSMB9 (6), NS5A-PPPIRI3L (7), NS3-RASAL2 (8). After pull-down with GST tagged viral baits (+) or with negative control GST alone (−), cellular preys are identified with anti-Flag antibody. Anti-GST antibody identifies either GST alone or GST-tagged viral baits. Expression of cellular preys in cell lysate is controlled by anti-Flag (bottom panel). […]
A random pool of 59 IMAP Y2H interactions was chosen for CoAP assays. Cellular ORFs (interacting domains found in Y2H screens) were cloned by recombinational cloning from a pool of human cDNA library or the MGC cDNA plasmids using KOD polymerase (Toyobo) into pDONR207 (Invitrogen). After validation by sequencing, these ORFs were transferred to pCi-neo-3xFLAG gateway-converted, and HCV ORFs were transferred into pDEST27 (GST fusion in N-term). HEK-293T cells were then co-transfected (JetPei, Polyplus) by each pair of plasmid encoding interacting proteins. Controls are GST alone against 3xFLAG-tagged preys. Two days after transfection, cells were harvested and lysed (0.5% NP-40, 20 mM Tris-HCl (pH 8.0), 180 mM NaCl, 1 mM EDTA, and complete protease inhibitor cocktail). Cell lysates were cleared by centrifugation for 20 min at 13,000 rpm at 4° C. and soluble protein complexes were purified using Glutathione Sepharose 4B beads (GE Healthcare). Beads were then washed extensively four times with lysis buffer and proteins were separated on SDS-PAGE and transferred to nitrocellulose membrane. GST-tagged viral proteins and 3xFLAG-tagged cellular proteins were detected using standard immunoblotting techniques using anti-GST (Covance) and anti-FLAG M2 (Sigma) monoclonal antibodies (21).

Experiment [3] relates to HCV ORFs (Gal4-DB fusions). It is filed as binding, HCV genotype 1b, isolate con1. Particulars: human protein listed by gene symbol; the value names the HCV protein it interacts with.
The next experiment concerns the target T3, HCV proteins (Hepatitis C virus genotype 1b, UniProt Q9WMX2).
T3 construct: expressed in transfected cells
Nature of the experiment: Validation by Y2H pairwise matrices.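 Note: yeast two-hybrid pairwise tests of interactions first found in Y2H screens of HCV bait proteins against human cDNA libraries.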 It is filed as binding.

Setting [4] is: interaction with HCV protein NS5A.
[5] abbreviates: validation of interaction with HCV protein NS3.

This note sets out measurements from patent US20110091994A1, “Methods for Screening Compounds for Treating and/or Preventing an Hepatitis C Virus Infection” (priority 2008, published 2011).

Where two headings read alike, the source gives them in different places.

With deoxycholate, the “up-regulation of HCV RNA replication” value with HCV RNA replication is “more than tenfold”.
ZNF646: in experiment [1] (HCV protein NS5A as bait), the “IMAP Y2H IMAP2 (number of IST)” value was determined as 2. Also, the CoAP result in experiment [2] (setting [4]) is reported as “−”.
Regarding SMURF2, the “IMAP Y2H IMAP2 (number of IST)” value in experiment [1] (HCV protein NS3 as bait) stood at 4. Moreover, the “Interaction with viral protein” value in experiment [3] was “NS3 and NS2”. Also, the CoAP entry in experiment [2] (setting [5]) is “+”.
On to PPP1R13L, for which the “IMAP Y2H IMAP2 (number of IST)” value in experiment [1] (HCV protein NS5A as bait) is 2. Also, in experiment [3], the “Interaction with viral protein” value is recorded as “NS5A”. Besides, in experiment [2] (setting [4]), the CoAP entry is “+”.
Regarding TRIM27, the “IMAP Y2H IMAP2 (number of IST)” value in experiment [1] (HCV protein NS2 as bait) is 1. The “IMAP Y2H IMAP1 (number of IST)” value in experiment [1] (HCV protein NS3 as bait) is listed as 1. The “Interaction with viral protein” value in experiment [3] was “NS3 and NS2”. The Y2H matrices entry with HCV proteins (setting [5]) is reported as “+”.
Regarding UBQLN1, the results for the “IMAP Y2H IMAP1 (number of IST)” value in experiment [1] (HCV protein NS4A as bait) and in experiment [1] (HCV protein p7 as bait) were 2 and 3, respectively. Further, the “Interaction with viral protein” value in experiment [3] was “NS4A”. For the same compound, the Y2H matrices entry with HCV proteins (interaction with HCV protein p7) and with HCV proteins (validation of interaction with HCV protein NS4A) was “+” each time.
Consider JAG2, for which the “IMAP Y2H IMAP1 (number of IST)” value in experiment [1] (HCV protein NS3 as bait) was found to be 1. The “Interaction with viral protein” value in experiment [3] was “NS3”. Besides, in the experiment with HCV proteins (setting [5]), the Y2H matrices entry is on record as “+”.
On the same counts, the results for VCAN are 1, “NS3” and “+”.
Take BZRAP1: the “IMAP Y2H IMAP1 (number of IST)” value in experiment [1] (HCV protein NS3 as bait) is 1. Also, in experiment [3], the “Interaction with viral protein” value was “NS3”. Further, the Y2H matrices result in the experiment with HCV proteins (setting [5]) is on record as “+”.
Turning to FLAD1, the “IMAP Y2H IMAP1 (number of IST)” value in experiment [1] (HCV protein NS3 as bait) was 1. For the same compound, the “Interaction with viral protein” value in experiment [3] was “NS3”. In the experiment with HCV proteins (setting [5]), the Y2H matrices result is “+”.
ANKRD12: the “IMAP Y2H IMAP1 (number of IST)” value in experiment [1] (HCV protein NS3 as bait) is given as 1. The “Interaction with viral protein” value in experiment [3] is “NS3”. For the same compound, in the experiment with HCV proteins (setting [5]), the Y2H matrices entry was “+”.
For NOTCH1, the “IMAP Y2H IMAP1 (number of IST)” value in experiment [1] (HCV protein NS3 as bait) came to 2. Further, the “Interaction with viral protein” value in experiment [3] is “NS3”. Further, the Y2H matrices result in the experiment with HCV proteins (setting [5]) was “+”.
As for ITGB4, in experiment [1] (HCV protein NS3 as bait), the “IMAP Y2H IMAP1 (number of IST)” value was determined as 7. In addition, the “Interaction with viral protein” value in experiment [3] is listed as “NS3”. In the experiment with HCV proteins (setting [5]), the Y2H matrices entry is reported as “+”.
For TAF1, in that order: 2, “NS3” and “+”.
For the compound CALCOCO2, in experiment [1] (HCV protein NS3 as bait), the “IMAP Y2H IMAP1 (number of IST)” value is 5 and the “IMAP Y2H IMAP2 (number of IST)” value worked out at 2. Besides, the “Interaction with viral protein” value in experiment [3] is recorded as “NS3”. Further, in experiment [2] (setting [5]), the CoAP entry is “+”. Besides, the Y2H matrices entry with HCV proteins (setting [5]) is given as “+”.
COL4A2: in experiment [1] (HCV protein CORE as bait), the “IMAP Y2H IMAP1 (number of IST)” value was 1. Also, the “Interaction with viral protein” value in experiment [3] is reported as “CORE”. Further, the Y2H matrices entry in the experiment with HCV proteins (validation of interaction with HCV protein CORE) is recorded as “+”.
Consider CEP192, for which the “IMAP Y2H IMAP1 (number of IST)” value in experiment [1] (HCV protein NS3 as bait) is recorded as 1. Also, in experiment [3], the “Interaction with viral protein” value is reported as “NS3”. Moreover, the Y2H matrices result with HCV proteins (setting [5]) was “+”.
On to KHDRBS1, for which the “IMAP Y2H IMAP1 (number of IST)” value in experiment [1] (HCV protein NS3 as bait) is reported as 4. Also, the “Interaction with viral protein” value in experiment [3] is recorded as “NS3”. The Y2H matrices entry with HCV proteins (setting [5]) is given as “+”.
For CEP152, the “IMAP Y2H IMAP1 (number of IST)” value in experiment [1] (HCV protein NS3 as bait) is on record as 1. Further, the “Interaction with viral protein” value in experiment [3] was “NS3”. The Y2H matrices entry in the experiment with HCV proteins (setting [5]) is “+”.
Turning to ACTN2, in experiment [1] (HCV protein NS3 as bait), the “IMAP Y2H IMAP1 (number of IST)” value stood at 10 and the “IMAP Y2H IMAP2 (number of IST)” value is listed as 6. For the same compound, the “Interaction with viral protein” value in experiment [3] is listed as “NS3”. The CoAP entry in experiment [2] (setting [5]) was “−”. The Y2H matrices entry with HCV proteins (setting [5]) is on record as “+”.
For the compound CSNK2B, the “IMAP Y2H IMAP1 (number of IST)” value in experiment [1] (HCV protein NS3 as bait) came to 3. Moreover, the “Interaction with viral protein” value in experiment [3] is recorded as “NS3”. The Y2H matrices result in the experiment with HCV proteins (setting [5]) is on record as “+”.
On the same counts, the results for TGFB1I1 are 1, “NS3” and “+”.
As for ASXL1, in experiment [1] (HCV protein NS3 as bait), the “IMAP Y2H IMAP1 (number of IST)” value was 1. Also, in experiment [3], the “Interaction with viral protein” value was “NS5A and NS3”. Moreover, in the experiment with HCV proteins (setting [5]), the Y2H matrices result was “+”.
With GON4L, the “IMAP Y2H IMAP1 (number of IST)” value in experiment [1] (HCV protein NS3 as bait) is 1. Besides, the “Interaction with viral protein” value in experiment [3] is reported as “NS3”. In addition, the Y2H matrices entry with HCV proteins (setting [5]) is reported as “+”.
`C/C=C1\C(=O)C[C@H]2[C@@H]3CCC4=CC(=O)CC[C@]4(C)[C@H]3CC[C@]12C` [guggulsterone]: the “effect on the up-regulation of HCV replication induced by BAs” value with HCV RNA replication (FXR antagonism, in presence of BAs) was “blocked the up-regulation induced by BAs”. The “inhibition of basal level of HCV replication” value with HCV RNA replication (guggulsterone alone) is listed as “tenfold”.
In the case of PARP4, in experiment [1] (HCV protein NS3 as bait), the “IMAP Y2H IMAP1 (number of IST)” value came to 8. Besides, the “Interaction with viral protein” value in experiment [3] is “NS3”. For the same compound, the Y2H matrices result in the experiment with HCV proteins (setting [5]) is given as “+”.
KPNA1: in experiment [1] (HCV protein NS3 as bait), the “IMAP Y2H IMAP2 (number of IST)” value amounted to 8. The “Interaction with viral protein” value in experiment [3] was “NS3”. The CoAP entry in experiment [2] (setting [5]) is listed as “+”.
As to GFAP, the “IMAP Y2H IMAP1 (number of IST)” value in experiment [1] (HCV protein NS3 as bait) was 43. Further, in experiment [3], the “Interaction with viral protein” value is recorded as “NS3”. The Y2H matrices entry with HCV proteins (setting [5]) is recorded as “+”.
On the same counts, the results for SLIT1 are 7, “NS3” and “+”.
Take TRIO: in experiment [1] (HCV protein NS3 as bait), the “IMAP Y2H IMAP1 (number of IST)” value was found to be 1 and the “IMAP Y2H IMAP2 (number of IST)” value is listed as 1. Moreover, the “Interaction with viral protein” value in experiment [3] is given as “NS3”. Besides, in the experiment with HCV proteins (setting [5]), the Y2H matrices result is reported as “+”.
PSME3: in experiment [1] (HCV protein NS3 as bait), the “IMAP Y2H IMAP1 (number of IST)” value amounted to 10. Besides, the “Interaction with viral protein” value in experiment [3] is “NS3”. Also, in the experiment with HCV proteins (setting [5]), the Y2H matrices result was “+”.
For MLLT4, in that order: 2, “NS3” and “+”.
As for STAT3, in experiment [1] (HCV protein NS3 as bait), the “IMAP Y2H IMAP1 (number of IST)” value came out at 1. In experiment [3], the “Interaction with viral protein” value is reported as “NS3”. In the experiment with HCV proteins (setting [5]), the Y2H matrices entry is listed as “+”.
On to CFP, for which the “IMAP Y2H IMAP1 (number of IST)” value in experiment [1] (HCV protein NS3 as bait) is listed as 4. The “Interaction with viral protein” value in experiment [3] is “NS3”. Further, the Y2H matrices entry with HCV proteins (setting [5]) is given as “+”.
